# Experimental data reported in patent US10064928B2, “Peptides and combination of peptides for use in immunotherapy against CLL and other cancers” (IMMATICS BIOTECHNOLOGIES GMBH, priority 2015, dated 2018).
# Target: HLA-A*02:01 (Homo sapiens, UniProt P04439, D140Y/D185E/D98H/E176V/E277Q/G131W/G231S/I119V/I121R/I166T/I218V/L300P/L318F/N151K/N90K/P208A/P217A/Q86G/Q94H/R138H/R169H/T345S)
# Test: MHC binding assay (UV-ligand exchange, beta2m ELISA)
# Conditions: binding of HLA-class I restricted peptides to HLA-A*02:01, β2m ELISA
# Text: Candidate peptides for T cell based therapies according to the present invention were further tested for their MHC binding capacity (affinity). The individual peptide-MHC complexes were produced by UV-ligand exchange, where a UV-sensitive peptide is cleaved upon UV-irradiation, and exchanged with the peptide of interest as analyzed. Only peptide candidates that can effectively bind and stabilize the peptide-receptive MHC molecules prevent dissociation of the MHC complexes. To determine the yield of the exchange reaction, an ELISA was performed based on the detection of the light chain (β2m) of stabilized MHC complexes. The assay was performed as generally described in Rodenko et al. (Rodenko et al., 2006).
# 96 well MAXISorp plates (NUNC) were coated over night with 2 ug/ml streptavidin in PBS at room temperature, washed 4× and blocked for 1 h at 37° C. in 2% BSA containing blocking buffer. Refolded HLA-A*02:01/MLA-001 monomers served as standards, covering the range of 15-500 ng/ml. Peptide-MHC monomers of the UV-exchange reaction were diluted 100 fold in blocking buffer. Samples were incubated for 1 h at 37° C., washed four times, incubated with 2 ug/ml HRP conjugated anti-β2m for 1 h at 37° C., washed again and detected with TMB solution that is stopped with […]. Absorption was measured at 450 nm. Candidate peptides that show a high exchange yield (preferably higher than 50%, most preferred higher than 75%) are generally preferred for a generation and production of antibodies or fragments thereof, and/or T cell receptors or fragments thereof, as they show sufficient avidity to the MHC molecules and prevent dissociation of the MHC complexes.
row,Substance,"Peptide Exchange (MHC class I binding score, peptide exchange yield)"
1,168 (YLLDQSFVM; listed as Homo sapiens) [compound 168],“++++” (≥75% = ++++)
2,152 (SLIRILQTI; listed as Homo sapiens) [compound 152],“+++” (≥50 = +++)
3,189 (VMLEMTPEL; listed as Homo sapiens) [compound 189],“+++” (≥50 = +++)
4,117 (LLILENILL; listed as Homo sapiens) [compound 117],“+++” (≥50 = +++)
5,235 (GLDDLLLFL; listed as Homo sapiens) [compound 235],“+++” (≥50 = +++)
6,263 (SQWEDIHVV; listed as Homo sapiens) [compound 263],“+++” (≥50 = +++)
7,61 (FVYFIVREV; listed as Homo sapiens) [compound 61],“+++” (≥50 = +++)
8,52 (FLVETGFLHV; listed as Homo sapiens) [compound 52],“++++” (≥75% = ++++)
9,328 (VLLPQETAEIHL; listed as Homo sapiens) [compound 328],“++++” (≥75% = ++++)
10,264 (TILDYINVV; listed as Homo sapiens) [compound 264],“+++” (≥50 = +++)
11,24 (AMAGDVVYA; listed as Homo sapiens) [compound 24],“+++” (≥50 = +++)
12,22 (ALWDPVIEL; listed as Homo sapiens) [compound 22],“+++” (≥50 = +++)
13,238 (GLVETELQL; listed as Homo sapiens) [compound 238],“+++” (≥50 = +++)
14,176 (VLAEQNIIPSA; listed as Homo sapiens) [compound 176],“+++” (≥50 = +++)
15,336 (YMAVTTQEV; listed as Homo sapiens) [compound 336],“++++” (≥75% = ++++)
16,299 (ILEENIPVL; listed as Homo sapiens) [compound 299],“+++” (≥50 = +++)
17,376 (VLYNQRVEEI; listed as Homo sapiens) [compound 376],“+++” (≥50 = +++)
18,217 (ALDEPPYLTV; listed as Homo sapiens) [compound 217],“+++” (≥50 = +++)
19,95 (ILGYMAHEHKV; listed as Homo sapiens) [compound 95],“++” (≥20% = ++)
20,287 (FLWEEKFNSL; listed as Homo sapiens) [compound 287],“++++” (≥75% = ++++)
21,355 (FIWPMLIHI; listed as Homo sapiens) [compound 355],“+++” (≥50 = +++)
22,25 (ATYSGLESQSV; listed as Homo sapiens) [compound 25],“++” (≥20% = ++)
23,50 (FLFEPVVKAFL; listed as Homo sapiens) [compound 50],“+++” (≥50 = +++)
24,248 (KTVEPPISQV; listed as Homo sapiens) [compound 248],“++” (≥20% = ++)
25,261 (SLVEAQGWLV; listed as Homo sapiens) [compound 261],“+++” (≥50 = +++)

row,Substance,"Peptide Exchange (MHC class I binding score, peptide exchange yield)"
1,150 (SLFDQPLSII; listed as Homo sapiens) [compound 150],“+++” (≥50 = +++)
2,268 (TLLQVFHLL; listed as Homo sapiens) [compound 268],“+++” (≥50 = +++)
3,237 (GLQENLDVVV; listed as Homo sapiens) [compound 237],“++++” (≥75% = ++++)
4,254 (QLIPKLIFL; listed as Homo sapiens) [compound 254],“+++” (≥50 = +++)
5,14 (ALLRLLPGL; listed as Homo sapiens) [compound 14],“+++” (≥50 = +++)
6,169 (TLLLGLTEV; listed as Homo sapiens) [compound 169],“+++” (≥50 = +++)
7,155 (SLMLEVPAL; listed as Homo sapiens) [compound 155],“+++” (≥50 = +++)
8,119 (VLPAEFFEV; listed as Homo sapiens) [compound 119],“+++” (≥50 = +++)
9,209 (ILQAELPSL; listed as Homo sapiens) [compound 209],“+++” (≥50 = +++)
10,363 (ITTEVVNELYV; listed as Homo sapiens) [compound 363],“+++” (≥50 = +++)
11,203 (ALLSSQLAL; listed as Homo sapiens) [compound 203],“+++” (≥50 = +++)
12,317 (NLLAHIWAL; listed as Homo sapiens) [compound 317],“+++” (≥50 = +++)
13,160 (SLSFLVPSL; listed as Homo sapiens) [compound 160],“+++” (≥50 = +++)
14,249 (LLPTGVFQV; listed as Homo sapiens) [compound 249],“+++” (≥50 = +++)
15,124 (LLLEETEKQAV; listed as Homo sapiens) [compound 124],“+++” (≥50 = +++)
16,385 (YTIPLAIKL; listed as Homo sapiens) [compound 385],“+++” (≥50 = +++)
17,143 (QLLDTYFTL; listed as Homo sapiens) [compound 143],“+++” (≥50 = +++)
18,308 (SLYDVSRMYV; listed as Homo sapiens) [compound 308],“++++” (≥75% = ++++)
19,128 (LLSEEEYHL; listed as Homo sapiens) [compound 128],“+++” (≥50 = +++)
20,120 (AIDAALTSV; listed as Homo sapiens) [compound 120],“+++” (≥50 = +++)
21,208 (ILLKTEGINL; listed as Homo sapiens) [compound 208],“+++” (≥50 = +++)
22,36 (FILTHVDQL; listed as Homo sapiens) [compound 36],“++++” (≥75% = ++++)
23,377 (VVDGTCVAV; listed as Homo sapiens) [compound 377],“+++” (≥50 = +++)
24,246 (KLDETGVAL; listed as Homo sapiens) [compound 246],“++” (≥20% = ++)
25,277 (VMILKLPFL; listed as Homo sapiens) [compound 277],“++” (≥20% = ++)
